According to patent US20030176665A1:
Read-outs that look alike come from different tables or passages of the source.

Key:
gp41 (535-681)-His6 [1] = test system: gp41 (535-681)-His6
gp41 (535-681)-His6 [2] = molecular target: gp41 (535-681)-His6; remark: listed apart in the source

“C-terminally truncated SlyD from E. coli” was tested, and the “aggregation of gp41 after shift to neutral pH (UV spectra)” value (gp41 (535-681)-His6 [1]) was “Comparable data have been obtained with ... a C-terminally truncated SlyD from E. coli”.

B1: trigger factor from Thermatoga maritima (protein)
chain: MEVKELERDKNRVVLEYVFGAEEIAQAEDKAVRYLNQRVEIPGFRKGRIPKNVLKMKLGEEFQEYTLDFLMDLIPDTLKDRKLILSPIVTERELKDVTARVVVEVHEEPEVRIGDISKIEVEKVDEEKVLEKYVERRIEDLRESHALLEPKEGPAEAGDLVRVNMEVYNEEGKKLTSREYEYVISEDEDRPFVKDLVGKKKGDVVEIEREYEGKKYTYKLEVEEVYKRTLPEIGDELAKSVNNEFETLEQLKESLKKEGKEIYDVEMKESMREQLLEKLPEIVEIEISDRTLEILVNEAINRLKREGRYEQIVSSYESEEKFREELKERILDDIKRDRVIEVLAQEKGISVNDEELEKEAEELAPFWGISPDRAKSLVKARQDLREELRWAILKRKVLDLLLQEVKVKVVEPKGEGDDSEGKEDN
In the case of B1, the “aggregation of gp41 after shift to neutral pH (UV spectra)” value (gp41 (535-681)-His6 [2]) is reported as “Comparable data have been obtained with trigger factor from Thermatoga maritima”.

B2: FkpA from E. coli (mature FkpA) (protein)
chain: AEAAKPATAADSKAAFKNDDQKSAYALGASLGRYMENSLKEQEKLGIKLDKDQLIAGVQDAFADKSKLSDQEIEQTLQAFEARVKSSAQAKMEKDAADNEAKGKEYREKFAKEKGVKTSSTGLVYQVVEAGKGEAPKDSDTVVVNYKGTLIDGKEFDNSYTRGEPLSFRLDGVIPGWTEGLKNIKKGGKIKLVIPPELAYGKAGVPGIPPNSTLVFDVELLDVKPAPKADAKPEADAKAADSAKK
In the case of B2, the “aggregation of gp41 after shift from about pH 3.5 to pH 7.4 (UV spectra after 1 and 10 minutes; 1 µM gp41 with 2 µM or 4 µM FkpA)” value (gp41 (535-681)-His6 [2]) is reported as “FkpA substantially reduces the aggregation of gp41 in a dose-dependent fashion” and the “suppression of aggregation (stray light in UV spectra) by a two-fold and a four-fold molar excess of the chaperone” value (gp41 (535-681)-His6 [2]) is reported as “there is compelling spectroscopic evidence that FkpA efficiently solubilizes the gp41 ectodomain in a dose-dependent fashion”.
